The target in this experiment is SF3b145(598–631) fragment, tag-free recombinant (isotope-labeled) (human) (UniProt Q13435). Put plainly: NMR titration.

pKd: −log10 of the molar value.

UniProt Q13435, sequence (Q13435 598-631): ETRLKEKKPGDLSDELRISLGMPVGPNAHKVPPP

With “human SF3b49 RRM1 (Pro5–Leu96), tag-free (from UniProt Q15427 5-96) (domain or fragment)”, the negative-log Kd (pKd) is 4.30.

The record behind these values is paper PMC5275738.
